Measured values published in publication PMC10511561, “Synergism between CMG helicase and leading strand DNA polymerase at replication fork” (Nature Communications, 2023).

T1: Mcm5 (subunit of CMG) (yeast, UniProt P29496 1-775)
T1 construct: Mcm5, yeast; Chain of m1 as it stands in the replisome structure; also called Mcm5-CTD; Mcm5-WHD; source: yeast strain yJCZ2, purified as part of CMG (anti-FLAG M2 resin, Mono Q, Superose 6)
T1 sequence: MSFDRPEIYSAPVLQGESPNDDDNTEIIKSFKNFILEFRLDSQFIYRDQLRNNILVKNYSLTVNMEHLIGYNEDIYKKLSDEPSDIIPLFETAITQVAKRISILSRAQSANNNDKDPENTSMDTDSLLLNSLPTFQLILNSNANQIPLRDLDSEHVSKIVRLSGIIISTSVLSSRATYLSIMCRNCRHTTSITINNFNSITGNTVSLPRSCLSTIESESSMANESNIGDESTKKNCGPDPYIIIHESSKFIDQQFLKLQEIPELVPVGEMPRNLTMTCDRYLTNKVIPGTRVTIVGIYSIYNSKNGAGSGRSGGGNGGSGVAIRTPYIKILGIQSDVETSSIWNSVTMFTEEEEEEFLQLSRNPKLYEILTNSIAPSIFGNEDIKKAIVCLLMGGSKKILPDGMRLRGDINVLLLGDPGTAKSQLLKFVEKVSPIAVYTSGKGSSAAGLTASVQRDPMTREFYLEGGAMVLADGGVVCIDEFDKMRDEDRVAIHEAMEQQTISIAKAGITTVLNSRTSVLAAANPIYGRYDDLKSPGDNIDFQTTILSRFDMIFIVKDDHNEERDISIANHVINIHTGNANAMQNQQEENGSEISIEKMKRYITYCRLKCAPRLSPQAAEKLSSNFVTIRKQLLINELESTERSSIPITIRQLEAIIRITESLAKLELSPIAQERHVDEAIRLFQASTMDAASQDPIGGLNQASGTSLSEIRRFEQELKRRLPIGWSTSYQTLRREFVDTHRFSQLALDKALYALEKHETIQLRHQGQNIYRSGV

B1: Dpb2 (subunit of Polε in the replisome) (natural protein, yeast)
chain: MFGSGNVLPVKIQPPLLRPLAYRVLSRKYGLSIKSDGLSALAEFVGTNIGANWRQGPATIKFLEQFAAVWKQQERGLFIDQSGVKEVIQEMKEREKVEWSHEHPIQHEENILGRTDDDENNSDDEMPIAADSSLQNVSLSSPMRQPTERDEYKQPFKPESSKALDWRDYFKVINASQQQRFSYNPHKMQFIFVPNKKQNGLGGIAGFLPDIEDKVQMFLTRYYLTNDRVMRNENFQNSDMFNPLSSMVSLQNELSNTNRQQQSSSMSITPIKNLLGRDAQNFLLLGLLNKNFKGNWSLEDPSGSVEIDISQTIPTQGHYYVPGCMVLVEGIYYSVGNKFHVTSMTLPPGERREITLETIGNLDLLGIHGISNNNFIARLDKDLKIRLHLLEKELTDHKFVILGANLFLDDLKIMTALSKILQKLNDDPPTLLIWQGSFTSVPVFASMSSRNISSSTQFKNNFDALATLLSRFDNLTENTTMIFIPGPNDLWGSMVSLGASGTLPQDPIPSAFTKKINKVCKNVVWSSNPTRIAYLSQEIVIFRDDLSGRFKRHRLEFPFNESEDVYTENDNMMSKDTDIVPIDELVKEPDQLPQKVQETRKLVKTILDQGHLSPFLDSLRPISWDLDHTLTLCPIPSTMVLCDTTSAQFDLTYNGCKVINPGSFIHNRRARYMEYVPSSKKTIQEEIYI
notes: Dpb2, yeast, subunit of Polε; NTD 12-98, linker 99-156, PDE domain 157-689 as printed; Chain of m2 as it stands in the replisome structure; also called Dpb2-NTD; Dpb2-OB; source: yeast strain yAJ2, purified as part of Polε (calmodulin resin, TEV elution, Mono Q, Superose 6)
B2: Mcm4 (subunit of CMG) (natural protein, yeast)
chain: MSQQSSSPTKEDNNSSSPVVPNPDSVPPQLSSPALFYSSSSSQGDIYGRNNSQNLSQGEGNIRAAIGSSPLNFPSSSQRQNSDVFQSQGRQGRIRSSASASGRSRYHSDLRSDRALPTSSSSLGRNGQNRVHMRRNDIHTSDLSSPRRIVDFDTRSGVNTLDTSSSSAPPSEASEPLRIIWGTNVSIQECTTNFRNFLMSFKYKFRKILDEREEFINNTTDEELYYIKQLNEMRELGTSNLNLDARNLLAYKQTEDLYHQLLNYPQEVISIMDQTIKDCMVSLIVDNNLDYDLDEIETKFYKVRPYNVGSCKGMRELNPNDIDKLINLKGLVLRSTPVIPDMKVAFFKCNVCDHTMAVEIDRGVIQEPARCERIDCNEPNSMSLIHNRCSFADKQVIKLQETPDFVPDGQTPHSISLCVYDELVDSCRAGDRIEVTGTFRSIPIRANSRQRVLKSLYKTYVDVVHVKKVSDKRLDVDTSTIEQELMQNKVDHNEVEEVRQITDQDLAKIREVAAREDLYSLLARSIAPSIYELEDVKKGILLQLFGGTNKTFTKGGRYRGDINILLCGDPSTSKSQILQYVHKITPRGVYTSGKGSSAVGLTAYITRDVDTKQLVLESGALVLSDGGVCCIDEFDKMSDSTRSVLHEVMEQQTISIAKAGIITTLNARSSILASANPIGSRYNPNLPVTENIDLPPPLLSRFDLVYLVLDKVDEKNDRELAKHLTNLYLEDKPEHISQDDVLPVEFLTMYISYAKEHIHPIITEAAKTELVRAYVGMRKMGDDSRSDEKRITATTRQLESMIRLAEAHAKMKLKNVVELEDVQEAVRLIRSAIKDYATDPKTGKIDMNLVQTGKSVIQRKLQEDLSREIMNVLKDQASDSMSFNELIKQINEHSQDRVESSDIQEALSRLQQEDKVIVLGEGVRRSVRLNNRV
notes: Mcm4, yeast; Chain of m1 as it stands in the replisome structure; source: yeast strain yJCZ2, purified as part of CMG (anti-FLAG M2 resin, Mono Q, Superose 6)
B3: Psf1 (subunit of GINS in CMG) (natural protein, yeast)
chain: MYGDLGNKLVLEAKRTKQLYARSNQDVNLPMYHEDIIRNILKEVSNLRKNTEYLKEQQQLGMLDDKVAKCQYFVTLLCMERNKRCLLAYQRLRTDILDSMAWNNNGLDLMSSITFSQQDTNNLSHQEQEYLKEYCDLITDLKSGDLVDIDLSGSLVPPSDVFIDVRVLKDAGEIQTEYGVFNLIKDSQFFVRQSDVERLIQQGYLQKI
notes: Psf1, yeast, subunit of GINS; Chain of m1 as it stands in the replisome structure; also called Psf1 B domain; Psf1-B domain; source: yeast strain yJCZ2, purified as part of CMG (anti-FLAG M2 resin, Mono Q, Superose 6)
B4: Mcm6 (subunit of CMG) (natural protein, yeast)
chain: MSSPFPADTPSSNRPSNSSPPPSSIGAGFGSSSGLDSQIGSRLHFPSSSQPHVSNSQTGPFVNDSTQFSSQRLQTDGSATNDMEGNEPARSFKSRALNHVKKVDDVTGEKVREAFEQFLEDFSVQSTDTGEVEKVYRAQIEFMKIYDLNTIYIDYQHLSMRENGALAMAISEQYYRFLPFLQKGLRRVVRKYAPELLNTSDSLKRSEGDEGQADEDEQQDDDMNGSSLPRDSGSSAAPGNGTSAMATRSITTSTSPEQTERVFQISFFNLPTVHRIRDIRSEKIGSLLSISGTVTRTSEVRPELYKASFTCDMCRAIVDNVEQSFKYTEPTFCPNPSCENRAFWTLNVTRSRFLDWQKVRIQENANEIPTGSMPRTLDVILRGDSVERAKPGDRCKFTGVEIVVPDVTQLGLPGVKPSSTLDTRGISKTTEGLNSGVTGLRSLGVRDLTYKISFLACHVISIGSNIGASSPDANSNNRETELQMAANLQANNVYQDNERDQEVFLNSLSSDEINELKEMVKDEHIYDKLVRSIAPAVFGHEAVKKGILLQMLGGVHKSTVEGIKLRGDINICVVGDPSTSKSQFLKYVVGFAPRSVYTSGKASSAAGLTAAVVRDEEGGDYTIEAGALMLADNGICCIDEFDKMDISDQVAIHEAMEQQTISIAKAGIHATLNARTSILAAANPVGGRYNRKLSLRGNLNMTAPIMSRFDLFFVILDDCNEKIDTELASHIVDLHMKRDEAIEPPFSAEQLRRYIKYARTFKPILTKEARSYLVEKYKELRKDDAQGFSRSSYRITVRQLESMIRLSEAIARANCVDEITPSFIAEAYDLLRQSIIRVDVDDVEMDEEFDNIESQSHAASGNNDDNDDGTGSGVITSEPPADIEEGQSEATARPGTSEKKKTTVTYDKYVSMMNMIVRKIAEVDREGAEELTAVDIVDWYLLQKENDLGSLAEYWEERRLAFKVIKRLVKDRILMEIHGTRHNLRDLENEENENNKTVYVIHPNCEVLDQLEPQDSS
notes: Mcm6, yeast; Chain of m1 as it stands in the replisome structure; source: yeast strain yJCZ2, purified as part of CMG (anti-FLAG M2 resin, Mono Q, Superose 6)

What was measured:
Test in all cases: cryo-EM structure; replisome assembled at room temperature from 0.7 uM CMG, forked DNA and ATPγS, then 1.5 molar excess of Polε, Ctf4, Tof1-Csm3; 100 mM KCl, 25 mM HEPES pH 7.6, 4 mM MgCl2, 4 mM ATPγS; 10-30% glycerol gradient with glutaraldehyde fixation; States I-VI by 3D classification
Settings in all cases: both partners purified
Mcm3 (subunit of CMG) = target: T2, Mcm3 (subunit of CMG) (yeast, UniProt P24279 1-971)
T2 construct: Mcm3, yeast; Chain of m1 as it stands in the replisome structure; source: yeast strain yJCZ2, purified as part of CMG (anti-FLAG M2 resin, Mono Q, Superose 6)

Mcm5 (subunit of CMG) = target: T1, Mcm5 (subunit of CMG)
Tof1-Csm3 = target: T3, Tof1-Csm3 (yeast, UniProt P53840 1-1238; Q04659 1-317)
T3 construct: Tof1, yeast; Csm3, yeast; Purified beforehand as one complex; also called Tof1 and Csm3; components of the fork protection complex (FPC); source: yeast strain yAE48, galactose-induced, purified (calmodulin resin, TEV elution, Mono Q, Superose 6); not shown: CBP, N-terminal, cleaved

[1] = target: B1

T3 sequence (P53840 whole entry, chain 1 of 2): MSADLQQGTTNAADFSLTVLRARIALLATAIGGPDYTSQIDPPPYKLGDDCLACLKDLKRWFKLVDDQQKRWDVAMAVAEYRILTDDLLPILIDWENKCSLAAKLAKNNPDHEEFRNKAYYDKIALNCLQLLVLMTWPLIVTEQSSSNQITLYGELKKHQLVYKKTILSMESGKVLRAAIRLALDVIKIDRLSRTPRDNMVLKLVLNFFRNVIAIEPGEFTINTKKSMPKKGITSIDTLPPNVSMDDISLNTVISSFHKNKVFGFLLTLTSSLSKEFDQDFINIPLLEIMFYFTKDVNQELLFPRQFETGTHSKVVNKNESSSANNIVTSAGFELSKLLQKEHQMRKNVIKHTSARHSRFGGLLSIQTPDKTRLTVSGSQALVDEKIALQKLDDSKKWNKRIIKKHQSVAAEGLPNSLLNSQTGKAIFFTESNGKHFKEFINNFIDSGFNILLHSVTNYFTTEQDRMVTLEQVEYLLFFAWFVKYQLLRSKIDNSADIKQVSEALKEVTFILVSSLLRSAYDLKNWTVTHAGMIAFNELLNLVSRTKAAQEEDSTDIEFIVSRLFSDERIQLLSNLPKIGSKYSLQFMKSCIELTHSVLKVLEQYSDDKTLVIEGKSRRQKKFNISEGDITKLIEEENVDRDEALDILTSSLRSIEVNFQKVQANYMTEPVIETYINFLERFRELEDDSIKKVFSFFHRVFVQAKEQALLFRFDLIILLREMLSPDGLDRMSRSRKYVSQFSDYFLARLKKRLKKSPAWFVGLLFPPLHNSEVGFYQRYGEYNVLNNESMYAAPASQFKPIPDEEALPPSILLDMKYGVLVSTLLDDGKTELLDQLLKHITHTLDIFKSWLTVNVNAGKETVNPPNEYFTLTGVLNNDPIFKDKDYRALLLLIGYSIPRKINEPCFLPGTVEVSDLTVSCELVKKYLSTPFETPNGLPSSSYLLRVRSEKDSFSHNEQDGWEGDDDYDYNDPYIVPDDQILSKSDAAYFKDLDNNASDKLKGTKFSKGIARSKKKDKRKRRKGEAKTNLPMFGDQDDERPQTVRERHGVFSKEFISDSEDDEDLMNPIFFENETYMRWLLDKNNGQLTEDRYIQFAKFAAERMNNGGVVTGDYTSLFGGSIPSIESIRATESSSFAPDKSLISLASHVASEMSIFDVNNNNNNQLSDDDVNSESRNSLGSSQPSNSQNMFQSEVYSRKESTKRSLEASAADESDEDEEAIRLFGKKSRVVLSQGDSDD
T3 sequence (Q04659 whole entry, chain 2 of 2): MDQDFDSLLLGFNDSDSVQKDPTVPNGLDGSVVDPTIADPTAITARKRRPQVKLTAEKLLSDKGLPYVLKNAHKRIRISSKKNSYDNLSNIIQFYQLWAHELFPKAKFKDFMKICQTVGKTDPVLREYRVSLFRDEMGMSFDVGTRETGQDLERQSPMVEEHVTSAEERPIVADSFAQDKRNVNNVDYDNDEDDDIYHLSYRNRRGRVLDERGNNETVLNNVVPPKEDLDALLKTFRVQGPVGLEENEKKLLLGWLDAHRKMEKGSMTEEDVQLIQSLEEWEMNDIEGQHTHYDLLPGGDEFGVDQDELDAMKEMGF
T2 sequence (P24279 whole entry): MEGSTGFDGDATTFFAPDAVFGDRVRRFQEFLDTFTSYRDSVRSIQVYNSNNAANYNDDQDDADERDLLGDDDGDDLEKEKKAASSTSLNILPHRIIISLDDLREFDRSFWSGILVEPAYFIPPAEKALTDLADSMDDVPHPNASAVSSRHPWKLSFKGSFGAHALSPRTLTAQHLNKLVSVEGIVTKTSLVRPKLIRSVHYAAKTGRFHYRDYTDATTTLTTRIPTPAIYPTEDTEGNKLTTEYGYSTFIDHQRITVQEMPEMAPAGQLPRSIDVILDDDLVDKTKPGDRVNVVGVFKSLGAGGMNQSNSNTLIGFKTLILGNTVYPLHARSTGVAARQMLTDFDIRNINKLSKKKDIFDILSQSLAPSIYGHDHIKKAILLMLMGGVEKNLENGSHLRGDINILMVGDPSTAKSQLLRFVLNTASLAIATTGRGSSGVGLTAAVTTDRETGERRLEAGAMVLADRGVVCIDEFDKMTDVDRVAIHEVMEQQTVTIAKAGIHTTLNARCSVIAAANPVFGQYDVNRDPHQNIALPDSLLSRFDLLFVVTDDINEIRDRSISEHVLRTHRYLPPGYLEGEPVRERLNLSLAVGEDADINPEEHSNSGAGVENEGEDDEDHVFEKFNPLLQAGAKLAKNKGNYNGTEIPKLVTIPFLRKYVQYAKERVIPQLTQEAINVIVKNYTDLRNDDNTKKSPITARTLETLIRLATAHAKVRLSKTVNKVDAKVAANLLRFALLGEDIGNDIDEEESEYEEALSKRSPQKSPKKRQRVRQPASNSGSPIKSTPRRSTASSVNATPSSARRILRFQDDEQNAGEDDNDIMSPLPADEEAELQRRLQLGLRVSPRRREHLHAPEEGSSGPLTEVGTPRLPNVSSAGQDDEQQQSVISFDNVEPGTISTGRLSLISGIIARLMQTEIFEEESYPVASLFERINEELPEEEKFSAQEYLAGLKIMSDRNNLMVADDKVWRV

B1: binds (Mcm3 (subunit of CMG)); binds (Mcm5 (subunit of CMG)).

B2: binds (Tof1-Csm3).

B3: binds [1].

B4: binds (Tof1-Csm3).
